Broadly, the Kd is the constant that tells how readily two partners part at equilibrium. What is called koff is a measure of how fast the partners let go of each other. For orientation: kon means the rate constant with which the complex forms. The EC50 is the concentration that produces a half-maximal response.

The source of these data is US20240327538A1 (AMUNIX PHARMACEUTICALS, published 2024).

Test [1] addresses T1, human PSMA-Fc (human, UniProt Q04609 44-750, limits assumed).
T1 construct: also called Human PSMA-Fc fusions; not shown: Fc part
The test is described as follows: Octet.

Test [2] deals with T1, human PSMA-Fc. Description: Octet, human PSMA-Fc. On the procedure:
Binding affinity of select PSMA PTE variants was tested by Octet.
For orientation: BLI is a label-free optical method that tracks binding on a fibre tip over time.

For test [3], the target named is T1, human PSMA-Fc. The test is described as follows: Octet, human PSMA-Fc, 300-3.6 nM PSMA-uTCE.
In test [4] the target is T2, human PSMA (human, UniProt Q04609 44-750, limits assumed).
T2 construct: also called huPSMA
T2 sequence (Q04609 44-750 limits assumed): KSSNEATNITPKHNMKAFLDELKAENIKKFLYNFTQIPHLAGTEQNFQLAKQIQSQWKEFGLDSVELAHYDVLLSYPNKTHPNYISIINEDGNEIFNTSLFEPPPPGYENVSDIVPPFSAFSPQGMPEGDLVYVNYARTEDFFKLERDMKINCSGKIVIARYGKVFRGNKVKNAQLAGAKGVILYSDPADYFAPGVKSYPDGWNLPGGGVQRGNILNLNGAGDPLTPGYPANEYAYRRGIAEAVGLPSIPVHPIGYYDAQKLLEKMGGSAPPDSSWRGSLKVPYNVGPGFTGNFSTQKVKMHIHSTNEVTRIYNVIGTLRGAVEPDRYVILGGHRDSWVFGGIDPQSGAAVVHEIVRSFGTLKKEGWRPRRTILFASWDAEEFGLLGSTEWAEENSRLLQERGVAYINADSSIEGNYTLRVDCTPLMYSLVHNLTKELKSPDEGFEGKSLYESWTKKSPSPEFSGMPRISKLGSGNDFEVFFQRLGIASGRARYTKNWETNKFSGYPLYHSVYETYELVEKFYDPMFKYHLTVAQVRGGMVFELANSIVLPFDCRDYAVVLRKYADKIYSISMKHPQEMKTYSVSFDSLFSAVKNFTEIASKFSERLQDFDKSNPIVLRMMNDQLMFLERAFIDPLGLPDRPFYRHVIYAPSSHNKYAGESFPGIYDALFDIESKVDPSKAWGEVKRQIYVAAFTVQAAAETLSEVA
Description: Octet.

In test [5] the target is T3, cynomolgus monkey PSMA (cynomolgus monkey, UniProt A0A2K5VNZ0 44-750).
T3 construct: also called cyPSMA; Cyno PSMA
Description: Octet.

For test [6], the target named is T4, human CD3 epsilon (human, UniProt P07766 23-126, limits assumed).
T4 construct: also called huCD3e
T4 sequence (P07766 23-126 limits assumed): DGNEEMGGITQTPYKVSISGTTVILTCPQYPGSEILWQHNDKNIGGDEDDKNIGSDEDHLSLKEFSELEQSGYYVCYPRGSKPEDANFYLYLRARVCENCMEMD
The test is described as follows: Octet.

For test [7], the target named is T5, cynomolgus monkey CD3 epsilon (cynomolgus monkey, UniProt Q95LI5 22-117, limits assumed).
T5 construct: also called cyCD3e
T5 sequence (looked up): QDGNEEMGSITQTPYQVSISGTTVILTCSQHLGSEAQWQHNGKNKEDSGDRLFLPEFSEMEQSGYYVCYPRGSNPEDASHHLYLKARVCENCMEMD
The test is described as follows: Octet.

Test [8] addresses T2, human PSMA. The test is described as follows: Biacore. (Surface plasmon resonance follows binding to a sensor surface in real time, without labels.)
The target in test [9] is T3, cynomolgus monkey PSMA. The test is described as follows: Biacore.
In test [10] the target is T4, human CD3 epsilon. Description: Biacore.
Test [11] concerns the target T5, cynomolgus monkey CD3 epsilon. The test is described as follows: Biacore.
The target of test [12] is T2, human PSMA. Description: BLI or SPR. The source says:
(§1) The values are reported below in Table 19 for PSMA and Table 20 for CD3.

Test [13] concerns the target T3, cynomolgus monkey PSMA. Description: BLI or SPR.
Text: as §1

The target in the next test is T6, Human CD3 (human, UniProt P07766 23-126).
T6 construct: not shown: A CD3 delta partner cannot be excluded
T6 sequence (P07766 23-126 limits assumed): as the sequence (P07766 23-126 limits assumed) above
Description: BLI or SPR.

For the next test, the target named is T7, Cyno CD3 (cynomolgus monkey, UniProt Q95LI5 22-117).
T7 construct: also called cynomolgus monkey CD3; not shown: A CD3 delta partner cannot be excluded
T7 sequence: T5 sequence (looked up)
The test is described as follows: BLI or SPR.

For test [14], the target named is T8, PSMA on human prostate cancer cell lines (LNCaP, 22Rv1) (human, UniProt Q04609 1-750). Description: cell-based or functional assay.
T8 sequence (Q04609 whole entry): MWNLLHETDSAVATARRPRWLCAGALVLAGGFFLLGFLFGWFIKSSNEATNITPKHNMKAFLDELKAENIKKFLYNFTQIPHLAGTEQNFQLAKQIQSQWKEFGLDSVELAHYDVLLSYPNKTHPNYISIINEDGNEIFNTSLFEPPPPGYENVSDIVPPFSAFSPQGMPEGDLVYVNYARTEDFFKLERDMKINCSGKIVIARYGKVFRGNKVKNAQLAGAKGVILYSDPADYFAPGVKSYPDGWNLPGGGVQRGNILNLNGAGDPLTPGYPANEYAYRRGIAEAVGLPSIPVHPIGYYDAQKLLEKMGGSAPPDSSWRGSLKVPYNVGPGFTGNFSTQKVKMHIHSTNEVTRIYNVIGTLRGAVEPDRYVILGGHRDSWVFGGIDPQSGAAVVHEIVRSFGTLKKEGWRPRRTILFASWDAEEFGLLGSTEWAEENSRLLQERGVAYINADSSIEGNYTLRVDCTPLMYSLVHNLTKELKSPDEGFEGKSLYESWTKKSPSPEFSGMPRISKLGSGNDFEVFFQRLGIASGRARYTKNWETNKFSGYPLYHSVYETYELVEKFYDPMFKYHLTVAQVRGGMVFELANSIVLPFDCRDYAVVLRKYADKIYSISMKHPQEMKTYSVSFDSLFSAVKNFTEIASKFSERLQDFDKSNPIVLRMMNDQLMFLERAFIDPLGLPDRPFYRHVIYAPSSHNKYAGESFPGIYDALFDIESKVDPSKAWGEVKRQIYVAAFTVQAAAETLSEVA
Test [15] addresses T8, PSMA on human prostate cancer cell …. Description: cell-based or functional assay. This is another data set of the same source.
In test [16] the target is T9, human PSMA on PSMA-transfected CHO cells (human, UniProt Q04609 1-750).
T9 construct: whole, on cells; also called Hu PSMA CHO
T9 sequence (Q04609 whole entry): as above
The test is described as follows: binding to PSMA-transfected CHO cells, labeled secondary antibody to the anti-CD3 scFv. The procedure: (§2) Surface binding was detected with a labeled secondary antibody specific for the anti-CD3 scFv.
(§3) The binding affinities to both human and cyno PSMA and human and cyno CD3 epsilon were determined.

For test [17], the target named is T2, human PSMA. The test is described as follows: Pool 2 binding screen.
The target in test [18] is T1, human PSMA-Fc. Description: linker length / domain swap comparison.
Test [19] addresses T10, cyno PSMA on PSMA-transfected CHO cells (cynomolgus monkey, UniProt A0A2K5VNZ0 1-750).
T10 construct: whole, on cells; also called Cyno PSMA CHO
Description: binding to PSMA-transfected CHO cells, labeled secondary antibody to the anti-CD3 scFv. The procedure:
as §2, §3

T1 sequence (Q04609 44-750 limits assumed): as the sequence (Q04609 44-750 limits assumed) above

B1: uTCE of AC3265 (bispecific antibody, V domains shown)
VH: QVQLVESGGGVVQPGRSLRLSCAASGRTFGIYVMGWYRQAPGKEREFVAAISWSGSNRLVSDSVKGRFTISRDNSKNTLYLQMNSLRAEDTAVYYCAASNRLYGRTWYDFNESDYWGQGTQVTVSS
notes: VHH in uTCE with CD3.23 scFv (VL-VH), 9-residue linker; also called PSMA.55; V37Y
In turn, B1 had a dissociation constant (Kd) in the test with human PSMA-Fc [1] of 2.7 nM. In the test with human PSMA-Fc [2], this molecule displayed a koff of 0.00028 s⁻¹ and a kon of 104000 M⁻¹ s⁻¹. Further, in the test with human PSMA-Fc [3], binding was characterised by a dissociation constant (Kd) of 2.7 nM.

B2: uTCE from AC3928 (bispecific antibody)
chain: LTGPGTSESATPESQVQLVESGGGVVQPGRSLRLSCAASGRTFGIYVWGWFRQAPGKEREFVGAMSWSGSNRKVSDSVKGRFTISRDNSKNTLYLQMNSLRAEDTAVYYCAASNKEYGRTWYDFNESDYWGQGTQVTVSSGGGGSGGGSELVVTQEPSLTVSPGGTVTLTCRSSNGAVTSSNYANWVQQKPGQAPRGLIGGTNKRAPGTPARFSGSLLGGKAALTLSGVQPEDEAVYYCALWYPNLWVFGGGTKLTVLSESATPESGPGTSPGATPESGPGTSESATPEVQLLESGGGIVQPGGSLKLSCAASGFTFNTYAMNWVRQAPGKGLEWVARIRSKYNNYATYYADSVKDRFTISRDDSKNTVYLQMNNLKTEDTAVYYCVRHENFGNSYVSWFAHWGQGTLVTVSSGTATPESGPGEAGRSASHTPAG
notes: unmasked TCE released from this paTCE; also called PSMA.350-CD3.23 uTCE; AMX500-P6
Consider B2, for which the equilibrium dissociation constant (Kd) with human PSMA [4] turned out to be 13.2 nM; with cynomolgus monkey PSMA [5] it was 198 nM; in the test with human CD3 epsilon [6], 43 nM; in test [7], 44.9 nM; with human PSMA [8], 19 nM; in the test with cynomolgus monkey PSMA [9] it was 354 nM. Moreover, the dissociation constant (Kd) turned out to be 27.3 nM with human CD3 epsilon [10] and 26.6 nM in test [11].

B3: uTCE from AC3934 (bispecific antibody)
chain: LTGPGTSESATPESQVQLVESGGGVVQPGRSLRLSCAASGRTFGIYVWGWVRQAPGKEREFVGAISWSGSNRKVSDSVKGRFTISRDNSKNTLYLQMNSLRAEDTAVYYCAASNKLYGRTWYDFNESDYWGQGTQVTVSSGGGGSGGGSELVVTQEPSLTVSPGGTVTLTCRSSNGAVTSSNYANWVQQKPGQAPRGLIGGTNKRAPGTPARFSGSLLGGKAALTLSGVQPEDEAVYYCALWYPNLWVFGGGTKLTVLSESATPESGPGTSPGATPESGPGTSESATPEVQLVESGGGIVQPGGSLRLSCAASGFTFSTYAMNWVRQAPGKGLEWVGRIRTKRNNYATYYADSVKGRFTISRDDSKNTVYLQMNSLKTEDTAVYYCVRHENFGNSYVSWFAHWGQGTLVTVSSGTATPESGPGEAGRSASHTPAG
notes: unmasked TCE released from this paTCE; also called PSMA.262-CD3.228 uTCE
For the molecule B3, the Kd with human PSMA [4] was 1.6 nM; with cynomolgus monkey PSMA [5], 13.1 nM; in the test with human CD3 epsilon [6] it was 26.6 nM; in [7], 33.7 nM; with human PSMA [8], 0.5 nM; with cynomolgus monkey PSMA [9], 13 nM. Also, the Kd worked out at 9.83 nM in the test with human CD3 epsilon [10] and 10.4 nM in test [11].

B4: AMX-500(uTCE) (bispecific antibody)
chain: GTSESATPESQVQLVESGGGVVQPGRSLRLSCAASGRTFGIYVWGWFRQAPGKEREFVGAMSWSGSNRKVSDSVKGRFTISRDNSKNTLYLQMNSLRAEDTAVYYCAASNKEYGRTWYDFNESDYWGQGTQVTVSSGGGGSGGGSELVVTQEPSLTVSPGGTVTLTCRSSNGAVTSSNYANWVQQKPGQAPRGLIGGTNKRAPGTPARFSGSLLGGKAALTLSGVQPEDEAVYYCALWYPNLWVFGGGTKLTVLSESATPESGPGTSPGATPESGPGTSESATPEVQLVESGGGIVQPGGSLRLSCAASGFTFSTYAMNWVRQAPGKGLEWVGRIRTKRNNYATYYADSVKGRFTISRDDSKNTVYLQMNSLKTEDTAVYYCVRHENFGNSYVSWFAHWGQGTLVTVSSGTATPESGPG
notes: also called uTCE from AC3896; fully unmasked AMX-500; not shown: remnant of cleaved N-terminal release segment RSR-3213; remnant of cleaved C-terminal release segment RSR-3213
Turning to B4, the Kd with human PSMA [4] came to 12.1 nM; with cynomolgus monkey PSMA [5] it was 201 nM; with human CD3 epsilon [6], 33.2 nM; in test [7], 38.8 nM; in the test with human PSMA [8], 11.7 nM; in the test with cynomolgus monkey PSMA [9], 230 nM. Besides, the Kd with human CD3 epsilon [10] was 12.8 nM; in test [11], 13.7 nM; with human PSMA [12], 44 nM; with cynomolgus monkey PSMA [13], 410 nM; in the test with Human CD3, 28 nM; with Cyno CD3 it was 26 nM. In addition, the off-rate constant (koff) in the test with human PSMA [12] was 0.012 s⁻¹; in the test with cynomolgus monkey PSMA [13] it was 0.043 s⁻¹; in the test with Human CD3, 0.1 s⁻¹; with Cyno CD3, 0.1 s⁻¹. In addition, the kon with human PSMA [12] stood at 270000 M⁻¹ s⁻¹; in the test with cynomolgus monkey PSMA [13], 100000 M⁻¹ s⁻¹; with Human CD3, 4e+06 M⁻¹ s⁻¹; with Cyno CD3, 5e+06 M⁻¹ s⁻¹. In addition, the “in vitro cytotoxicity IC50, LNCaP PSMA-high cells with PBMC, donor 1” value in test [14] was determined as 24 pM. In addition, in [14], the “in vitro cytotoxicity IC50, LNCaP PSMA-high cells with PBMC, donor 2” value was 15 pM. Also, in test [14], the “in vitro cytotoxicity IC50, LNCaP PSMA-high cells with PBMC, donor 3” value was found to be 16 pM. In addition, the “in vitro cytotoxicity IC50, LNCaP PSMA-high cells with PBMC, donor 5” value in test [14] is 32 pM. Also, the “in vitro cytotoxicity IC50, 22Rv1 cells with PBMC, donor 1” value in test [15] amounted to 691 pM. In addition, the “in vitro cytotoxicity IC50, 22Rv1 cells with PBMC, donor 2” value in test [15] is 1340 pM. For the same molecule, in test [15], the “in vitro cytotoxicity IC50, 22Rv1 cells with PBMC, donor 3” value came to 1300 pM. For the same molecule, in test [16], it took 17.4 nM to reach a half-maximal effect (EC50).

B5: uTCE of AC3329 (bispecific antibody)
chain: LTGPRAPPEPEFARATSGSETPGTQVQLVESGGGVVQPGRSLRLSCAASGRTFGIYVMGWVRQAPGKEREFVAAISWSGSNRKVSDSVKGRFTISRDNSKNTLYLQMNSLRAEDTAVYYCAASNRLYGRTWYDFNESDYWGQGTQVTVSSGGGGSGGGSELVVTQEPSLTVSPGGTVTLTCRSSNGAVTSSNYANWVQQKPGQAPRGLIGGTNKRAPGTPARFSGSLLGGKAALTLSGVQPEDEAVYYCALWYPNLWVFGGGTKLTVLGATPPETGAETESPGETTGGSAESEPPGEGEVQLLESGGGIVQPGGSLKLSCAASGFTFNTYAMNWVRQAPGKGLEWVARIRSKYNNYATYYADSVKDRFTISRDDSKNTVYLQMNNLKTEDTAVYYCVRHENFGNSYVSWFAHWGQGTLVTVSSGTAEAASASGEAGRSANHTPAG
notes: unmasked TCE of this paTCE; also called PSMA.119; L59K
In turn, B5 had an equilibrium dissociation constant (Kd) with human PSMA-Fc [1] of 3.2 nM. In addition, in the test with human PSMA-Fc [2], the dissociation constant (Kd) is 3.2 nM, the koff came out at 0.000248 s⁻¹ and the on-rate constant (kon) is 80000 M⁻¹ s⁻¹. Binding in the test with human PSMA [17] was characterised by a dissociation constant (Kd) of 4.1 nM.

B6: uTCE from AC3092 (bispecific antibody)
chain: LTGPATSGSETPGTQVQLVESGGGVVQPGRSLRLSCAASGRTFGIYVMGWVRQAPGKEREFVAAISWSGSNRLVSDSVKGRFTISRDNSKNTLYLQMNSLRAEDTAVYYCAASNRLYGRTWYDFNESDYWGQGTQVTVSSGGGGSGGGSELVVTQEPSLTVSPGGTVTLTCRSSNGAVTSSNYANWVQQKPGQAPRGLIGGTNKRAPGTPARFSGSLLGGKAALTLSGVQPEDEAVYYCALWYPNLWVFGGGTKLTVLGATPPETGAETESPGETTGGSAESEPPGEGEVQLLESGGGIVQPGGSLKLSCAASGFTFNTYAMNWVRQAPGKGLEWVARIRSKYNNYATYYADSVKDRFTISRDDSKNTVYLQMNNLKTEDTAVYYCVRHENFGNSYVSWFAHWGQGTLVTVSSGTAEAASASGEAGRSANHTPAG
notes: unmasked TCE released from this paTCE; also called AMX-500-P1; PSMA.5-CD3.23 uTCE
As for B6, the Kd in the test with human PSMA-Fc [1] stood at 3.9 nM; with human PSMA [4], 4.5 nM; with cynomolgus monkey PSMA [5] it was 41.1 nM; in the test with human CD3 epsilon [6], 71.9 nM; in test [7], 64.6 nM; with human PSMA-Fc [2] it was 3.9 nM. Besides, the affinity in the test with human PSMA-Fc [18], expressed as Kd, was 3.9 nM. The koff in the test with human PSMA-Fc [2] came to 0.000273 s⁻¹; in the test with human PSMA-Fc [18] it was 0.00027 s⁻¹. Also, the kon with human PSMA-Fc [2] is 72500 M⁻¹ s⁻¹; in the test with human PSMA-Fc [18], 72000 M⁻¹ s⁻¹. The results for the half-maximal effective concentration (EC50) in test [16] and in test [19] were 9.06 nM and 28.8 nM, respectively.
